Assay results from patent US20260069656A1, “Nutritive Polypeptides and Formulations Thereof, and Methods of Production and Use Thereof” (Axcella Health Inc., priority 2013, published 2026).

Key:
[1] = pH solubility screen in Citric Acid / Dibasic Sodium Phosphate buffers; format: physicochemical
Protocol: pH Solubility. […] Protein was either lyophilized and then resuspended in buffer cocktail mixtures, or concentrated and then spiked into buffer cocktail mixtures at a final protein concentration of 5 to 30 mg/ml. As a control, protein was also dissolved in a solution of 8 M urea. Protein solutions were shaken for 10 min at room temperature. Turbidity of proteins was determined by measuring the absorbance of protein solutions at 650 nm. The protein solution was then centrifuged for 10 min at 1100×g to pellet undissolved or precipitated protein. The soluble protein fraction (supernatant) was sampled and protein concentration was measured by one or more of the following methods: Coomassie Plus Protein Assay (Pierce), Chip electrophoresis, gel electrophoresis, and/or absorbance at 280 nm. The pH range over which select proteins remained greater than 80% soluble as determined by Bradford and the A650 value are listed in Table E31C.

[2] = Intact half-life during simulated gastric fluid (SGF) digestion; conditions: SGF pH 1.5, pepsin:polypeptide 1:20 w/w, 37° C.; produced in E. coli unless otherwise noted
[3] = Solubility of proteins (lyophilized/reconstituted or ultrafiltered); conditions: produced in E. coli unless otherwise noted
Protocol: Solubility. […] Protein samples were dried by lyophilization on a FreeZone Freeze Dry System (Labconco) using the manufacturer's standard protocol and then resuspended in buffer to the desired concentration. Centrifugal and tangential ultrafiltration were used to selectively remove buffer from the protein sample until the desired concentration was reached. Centrifugal ultrafiltration of protein solutions was performed by centrifugation (10,000×g) of 10 mg of protein in an Amicon centrifugal filter (Millipore) with a molecular weight cutoff of 3 kDa, 10 kDa, or 30 kDa, depending on the protein size, until the desired contrentration was reached. Ultrafiltration of protein solutions was performed on Hydrosart ultrafiltration cassettes (Sartorius Stedim, Bohemia, NY) with a molecular weight cutoff of 3 kDa, 10 kDa, or 30 kDa, depending on the protein size, at a cross flow rate of 12 L/m2/min. For most processes, transmembrane pressure was maintained at 20 psi and performed until the desired contrentration was reached.
The protein concentration of the above samples was measured by one or a combination of the following methods: Coomassie Plus Protein Assay, absorbance at 280 nm (A280), and total amino acid analysis. Coomassie Plus Protein Assays (Pierce) were performed according to the manufacturer's protocol. Absorbance at 280 nm was measured on a Nanodrop 2000 UV-Vis spectrophotometer. Protein concentration was determined using the A280 value and molar extinction coefficient, which was calculated by primary amino acid sequence using ProtParam (Gasteiger, Elisabeth, et al. The proteomics protocols handbook. Humana Press, 2005. 571-607.). Total amino acids were analyzed by HPLC after acid hydrolysis as described in Henderson, J. W., et al. Agilent Technologies (2010).

[4] = Thermostability, ProteoStat Thermal Shift Stability Kit, temperature of aggregation; format: physicochemical; conditions: pH 7.1; heated from 25° C. to 95° C.
Protocol: Thermostability. The thermostability of proteins in a buffer cocktail of Citric Acid and Dibasic Sodium Phosphate over a pH range of 2.8 to 7.1 (preparation described above in Table E31B) was determined using the ProteoStat® Thermal Shift Stability Kit (Enzo Life Sciences) according to the manufacturer's standard protocol. Briefly, protein solutions (˜10 mg/ml) containing 1× ProteoStat TS Detection Reagent were heated from 25° C. to 95° C. at a rate of 0.5° C. per 30 sec using a real-time PCR (rtPCR) thermocycler (BioRad) equipped with a plate reader (SynergyMx, Biotek) while monitoring the fluorescence with a Texas Red filter.

[5] = Rat pharmacokinetic studies, plasma amino acids by HPLC; conditions: oral administration to rats
Protocol: Rat pharmacokinetic studies. Male Sprague Dawley rats with indwelling jugular vein cannula (JVC) were purchased from Harlan Laboratories and acclimated to the Test Facility (Agilux Laboratories) for at least two days prior to study initiation. Prior to dose administration animals were fasted overnight (11-13 h) and remained fasted until completion of the study. Test articles were orally administered via a bulb-tipped 18 gauge stainless steel gavage needle attached to a syringe. The weight of all dose syringes were recorded prior to and following dosing to more accurately determine the amount of solution dosed. Serial blood samples (˜300 μL) were collected from the JVC at time 0 (pre-dose) and 0.25, 0.5, 1, 2, and 4 h post-dose. Blood samples were collected into tubes containing the anti-coagulant K2EDTA, a general protease inhibitor cocktail (Sigma P8340, diluted 1:100 in whole blood), and a DPP IV inhibitor (Millipore DPP4, diluted 1:100 in whole blood). Immediately following blood collection tubes were vortexed and stored on wet ice until processing to plasma by centrifugation (3,500 rpm at 5° C.) within 1 h of collection. Plasma samples were then transferred into new tubes and stored at −80° C.
The concentration of Glu, Ser, His, Gly, Thr, Arg, Ala, Tyr, Val, Met, Phe, Ile, Leu, and Lys in the plasma samples was determined by HPLC amino acid analysis, as described herein. Prior to HPLC amino acid analysis, insoluble particles were removed from plasma samples by centrifugation (1100×g at 4° C.) for 10 min. A 25 μL sample of the soluble fraction was then transferred to a 96-well plate, for some samples an internal standard (Norvaline, Agilent) was added to each plasma sample at final concentration of 0.5 mM.

GLP-2 = assay: Total GLP-2 ELISA, plasma GLP-2 in healthy fasted rats; format: in vivo, rat
Protocol: Animals were treated and acutely dosed with test articles as part of pharmacokinetic rodent experiments according to methods described herein. In this experiment, two test articles were analyzed, vehicle and a nutritive formulation of SEQID-240, dosed at 1.54 g/kg.
Total GLP-2 was measured with Millipore Total GLP-2 ELISA Kit (Millipore, EZGLP2-37K). The ELISA kit was equilibrated to room temperature for a minimum of 30 minutes prior to running the assay. The kit GLP-2 Standard, Quality Control 1 and Quality Control 2 were reconstituted with 500 μL MilliQ water, inverted 5 times and incubated at room temperature for 5 minutes, then gently vortexed to mix. The standard curve was prepared by diluting the GLP-2 Standard serially 1:1 in kit Assay Buffer to generate an eight point standard curve including 0 ng/mL GLP-2. Plasma samples were thawed on ice and centrifuged for 10 minutes at approximately 1109× rcf to pellet insoluble material. Fasted plasma matrix from untreated, fasted rat was prepared for running the standard and quality controls in duplicate at 20% (2×).
1× Wash Buffer was prepared in a clean 500 mL glass bottle by combining 50 mL 10× Wash Buffer with 450 mL MilliQ water. Strips were prepared by washing 3 times with 300 μL 1× Wash Buffer applied with a 30-300 μL 8-channel pipette. Between washes the wash buffer was decanted into a waste receptacle and the plate tapped sharply on a stack of paper towels to remove remaining wash buffer.
Following the first wash, 90 μL of Assay Buffer was added to sample wells, and 50 μL of 20% matrix in Assay Buffer was added to all standard and quality control wells. 10 μL of sample was added to each sample well and 50 μL of standard and quality control were added to matrix containing wells. Samples, standards and quality control wells were run in duplicate, except for 0 ng/mL GLP-2 standard which was run in quadruplicate.
The plate was sealed with a plastic plate seal and incubated at room temperature on a horizontal plate shaker at 450 rpm for 2 hours. Following the first incubation, the plate was washed three times with 1× Wash Buffer, decanting into a waste receptacle and tapping the inverted plate sharply on a stack of paper towels to remove excess wash buffer after each wash.
100 μL of Detection Antibody was added to each well and the plate was sealed with a plastic plate seal and incubated at room temperature on a horizontal plate shaker at 450 rpm for 1 hour. […]
Absorbance was measured on a SynergyMX Plate Reader at 450 nm and 590 nm. Measured values were the difference between 450 nm and 590 nm absorbance values.
Data were analyzed with GraphPad Prism 6.03. […]

Substance: SEQID-00240: nutritive polypeptide naturally produced in Cow, recombinantly expressed in E. coli (DLEGSLEQEKKLRMDLERAKRKLEGDLKLAQESTMDIENDKQQLDEKLKK; listed as Bos taurus)
- pH Range where Protein is >80% detected as Soluble and A650 <1 OD: Low ([1]; lower pH of range): 6.6
- pH Range where Protein is >80% detected as Soluble and A650 <1 OD: High ([1]; upper pH of range): 9.1
- SGF Half-life (t½) [2]: 42 s
- Solubility [3]: 163 mg/mL
- Tagg (pH 7.1) [4]: >95
- plasma Phe concentration [5]: causing no flux in plasma Phe concentration
- change in AUC0-4 h for plasma Lys ([5]; doses of Table E33A): increased the change in AUC0-4 h for plasma Lys
- GLP-2 area under curve vs vehicle (GLP-2; 0-60 minutes, P<0.005): significantly greater in the SEQID-00240 treatment compared to vehicle
- GLP-2 area under curve vs vehicle (GLP-2; 0-240 minutes, P<0.01): significantly greater in the SEQID-00240 treatment compared to vehicle
- total GLP-2 concentration vs vehicle (GLP-2; 1.54 g/kg, at 15, 30, 60 and 120 minutes following treatment): statistically significantly greater than vehicle
- total GLP-2 concentration relative to time 0 (GLP-2; 1.54 g/kg, at 15, 30 and 60 minutes following gavage): statistically significant increase in GLP-2 concentration relative to time 0
